{"source": "the nanobody polyreactivity screen of Harvey et al. (2022)", "data": [{"test": "yeast display, Sf9 membrane polyspecificity reagent, FACS + sequencing; frameworks hold sequencing errors", "procedure,_shortened": "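A nanobody's polyreactivity label depends on the gate it was sorted from. Yeast display cells were stained with 10% biotinylated, detergent-solubilized Sf9 membrane reagent for 1 hour at 4 °C, enriched on streptavidin microbeads and sorted by FACS. The low and high (top ~1%) gates were set on anti-HA fluorescence for expression and streptavidin fluorescence for reagent binding.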", "values": [{"sequence": "QVQLVDSGGGLVQAGGSLRLSCAASGSIFYPYAMGWYRQAPGKEREFVAGITTRGGSTYYADSVKGRFTISRDNAKNTVYLQMNSLKPEDTAVYYCAAYSSVWPNFGYWGQGTQVTVSS", "polyreactivity (PSR sort gate)": "high polyreactivity"}, {"sequence": "QVQLVESGGGLVQAGGSLRLSCAAAGNIFSPYAMGWYIQAPGKERELVAAISYSGGSTYYADSVKGRFTISRDIAKNTFYLQMNSLKPEDTAVYYCAVVYSYYLAVLGYWDYDYWGQGTQVTVSS", "polyreactivity (PSR sort gate)": "low polyreactivity"}, {"sequence": "QVQHVESGGGLVQAGGSLRLSCAASGFTFSVYVLGWSRQAPGKERELVAAITWSGGSTYYADSEQGRITISRDHAKNTVYLQMNSQKPQETAVYYCAAQAFSPHYGWFYYWGQGTQVTVSS", "polyreactivity (PSR sort gate)": "high polyreactivity"}, {"sequence": "QVQLVESGGGLVQAGGSLRLSCAASGSTFAPYAMGWYRQAPGKERELVAAIRSSGGSTYYADSVKGRFTISRDNAKNTVYLQMNSLKPEDTAVYYCADDYYTSADYVDYYYWGQGTQVTVSS", "polyreactivity (PSR sort gate)": "low polyreactivity"}, {"sequence": "QVQLVESGGGLVQAGGSLRLSCAASGRIFQWNAMGWYRQAPGKERELVATISSRGGSTYYADSVKGRFTISRDNANNTVYLQMNSLKPEDTAVYYCAARYYAKYRSYDYWGLGTQVTVSS", "polyreactivity (PSR sort gate)": "high polyreactivity"}, {"sequence": "QVQLVESGGGLVQAGGRLRLSCAASGRIFLGYTMGSYRQAPWKERELVAAISKSGDSTYYADAVKGRFTFSSDNAKYTVFLQMNSLKPEDTAVYYCATRGYQSLRHQGTDDYWGQGTQVTVSS", "polyreactivity (PSR sort gate)": "high polyreactivity"}, {"sequence": "QVQLVESGGGLVQAGGSLRLSCAASGFIFRSYAMGWYRQAPGKERELVAAITRSGGSTYYADSVKGRFTISRDNAKNTDYLQMNSLKPEDTAVYYCATRRYWYYILDYWGQGTQVTVSS", "polyreactivity (PSR sort gate)": "high polyreactivity"}, {"sequence": "QVQLVESGVGLVQAGGSLLLSCAASGRIFRVYAMGWYRQAPGKERELVAAISWSGGRTYYADSVKGRFTISRDNAKNTVYLQMNSLKPEDTAVYYCAAERCGPTYYSGGDYDYWGQGTQVTVSS", "polyreactivity (PSR sort gate)": "high polyreactivity"}, {"sequence": "QVQLVESGGGLDQAGGSLRLSCAASGRTFEYNAMGLYRQAPGKERELVATIRYSGTSTYADSVKGRFTISRDNAKNTAYLQMNSLKPEDTAVYYCNKLGYYYDRRYDYWGQGTQVTVSS", "polyreactivity (PSR sort gate)": "high polyreactivity"}, {"sequence": "QVQLVESGGGLVQAGGSLRLSCAASGIIFADNDMGWYRQAPVKERELVATISSAGNTNYADSVKGRFTISRDNAKNTVYLQMNSLKPEDTAVYYCAVVYYIPLLPPWIYEYDYWGQGTQVTVSS", "polyreactivity (PSR sort gate)": "low polyreactivity"}, {"sequence": "QVQLVESGGGLVQAGGSLRLSCAASGPTYKYNAMGWYRQAPGKEREMVAAISSTGSTNYADSVKGRFTISRDNAKNTVYLQMNSLKPEDTAVYYCAASFYFVQWGWYYYWGQGTQVTVSS", "polyreactivity (PSR sort gate)": "low polyreactivity"}, {"sequence": "QVQLVESGGGLVQAGGSLRLSCAASGITFGNYAMGWYRQAPGKEREFVAAISQSYGRTYYADSVKGRFTISRDNAKNTVYLQMNSLKPEDTAVYYCAARTRGSSRGDYDYWGQGTQVTVSS", "polyreactivity (PSR sort gate)": "high polyreactivity"}, {"sequence": "QVQLVESGGGLVQEGGSLRLSCAASGRTFWYYGMGWYRQAHGKERELVAAISRSGGRTSYADSVKGRFTISRDNAKNTVYLQMIRLKPEDTAVYYCATDGYYRYGYWGQGTQVTVSS", "polyreactivity (PSR sort gate)": "high polyreactivity"}, {"sequence": "QVQLVESGGGLVQAGGSLRLSCAASGRTFPYYAMGWYRQAPGKERELVAAISSSGGRTYYADSVKGRFTISRDNAKNTVYLQMNSLKREDTAVYYCNVDAWYPYQGFLVGYYYWGQGTQVTVSS", "polyreactivity (PSR sort gate)": "low polyreactivity"}, {"sequence": "QVQLVESGGGLVQAGGSLRLSCAASGRTFGYNAMGWYRQAPGKETELVAAIRYSGGSTYYADSVKGRFTISRDNSKNTVYLQMNSLKPEDTAVYYCAKETRRYYRGYYYWGQGTQVTVSS", "polyreactivity (PSR sort gate)": "high polyreactivity"}, {"sequence": "QVQLVESGGGLVQAGGSLRLSCAASGSIFIYYAMGWYRQAPGKERELVARITGGGSTYYADSVKGRFTISRDNAKNTVYLQMNSLKPEDTAVYYCAKRGYHFLTKYDYWGQGTQVTVSS", "polyreactivity (PSR sort gate)": "low polyreactivity"}, {"sequence": "QVQLVESGGGLVQAGGSLRLSCAAYGRTFLFYAMGWYIQAPGKERELVAAITRSDGSTYYADSVKGRFTISRDNAKNTVYLQMNSLKPEDTAVYYCAAEYVSILRDYDYWGQGTQVTVSS", "polyreactivity (PSR sort gate)": "low polyreactivity"}, {"sequence": "QVQLVESGGGLVQAGVSLRLSCAASGSTFARYAMGWYRQAPGKERELVAVITQSGSSTYYADSVKGRFTISRDNAKNTVYLQMNSLKPEDTAVYYCAAVGIDYTRYGRYWYSYDYWGQGTQVTVSS", "polyreactivity (PSR sort gate)": "high polyreactivity"}, {"sequence": "QVQLVESGGGLVQAGGSIRLSCAASGSTFSHNAMGWYRQAPGKERELVAAIRWNGGSTYYADSVKGRFTISRDNAKNTVYLQMNSLKPEDTAVYYCAKENHYFTQGYGYWGQGTQVTVSS", "polyreactivity (PSR sort gate)": "low polyreactivity"}, {"sequence": "QVQLVESGGGLVQAGGSLRLSCAASGSIFTPYAMGWYRQAPGKERELVAAISDSVGSTYYADSVKGRFTISRDNAKNTVYLQMNSLKPEDTAVYYCAAEYWVYDSYWFDYDYWGQGTQVTVSS", "polyreactivity (PSR sort gate)": "high polyreactivity"}, {"sequence": "QVQLVESGGGLVQAGGSLRLSCAASGSTLYYYVMGWYRQAPGKERELVAAISSSGDSTYYADSVKGRFTISRDNAKNTVYLQMTSLKPEDTAVYYCNAGWYFYGETTDDYWGQGTQVTVSS", "polyreactivity (PSR sort gate)": "low polyreactivity"}, {"sequence": "QVQLVESGGGLVQAGGSLRLSCAASGINLRRYAMGWYRQAPGKERELVARISYRGGRTNYADSVKGRFTISRDNAKNTVYLQMNSLKPEDTAVYYCAAVAWYYHEGTAYNYWGQGTQVTVSS", "polyreactivity (PSR sort gate)": "high polyreactivity"}, {"sequence": "QVQLVESGGGLVQAGGSLRLSCAASGSIFTYYAMGWYRQAPGKERELVASISWGGGSTYYADSVKGRFTISRDNAKNSVYLQMNSLKPVDTAVYYCATDVYVDYFVGGEYWGQGTQVTVSS", "polyreactivity (PSR sort gate)": "low polyreactivity"}, {"sequence": "QVQLVESGGGLVQAGGSLRLSCDASGFTFTRNAMGWYRQAPGKERELVDAISKRGGTTYYADSVKGRFTISRDYAKNTVYLQMNTLKPEDTSVYYCAKDGGITGGYWGQGTQVTVSS", "polyreactivity (PSR sort gate)": "high polyreactivity"}, {"sequence": "QVQLVESGGGLVQAGGSLRLSCAASGFTFYRNARGWYRQAPGKERELVAAISISGGSTYYADSVKGRFTISRDNAKNTVYLQMNSLKPEDTAVYYCAAYYYRDRYSRVKVTYWGQGTQVTVSS", "polyreactivity (PSR sort gate)": "high polyreactivity"}, {"sequence": "QVQLVESGGGLVQAGGSLRLSCAASGSIFYGYAMGWYRQAAGNERELVAAITTGGSTYCADSVKGRFTISRDNAKNTVYLQMNSLKPEDTAVYYCAAKYYTGGSFEMYYWGQGNQVTVSS", "polyreactivity (PSR sort gate)": "high polyreactivity"}, {"sequence": "QVQLEESGGGLVHAGGSLRLICAASGSTFSTYAMRWYRQAPGKERELVARITRGGSTNYADSVKGRFTISRDNAMNTVYLQMNCLKPDDTAVYYFSAGIRSGRKYDYWGQGTQVTVSS", "polyreactivity (PSR sort gate)": "low polyreactivity"}, {"sequence": "QVQLVESGGGLVQAGGSLRLSCAASGRTFRTYAMGWYRQAPGKERELVAAITTSGSSTYYADSVNGRFTISRDNAKKTVYLQMNILKPEDTAVYYCAAARAAIVPGYYSWGQGSQVTVSS", "polyreactivity (PSR sort gate)": "low polyreactivity"}, {"sequence": "QVQLVESGGGLVQAGGSLRLSCAASGNTFYGYAMGWYSQAPGQERELVASITLSGDSTYYADSVKGRFTISRDNAKNTVYLQMNTLKPEDTAVYYCAGVYTYPLGYYHYTYDYWGQGTQVTVSS", "polyreactivity (PSR sort gate)": "low polyreactivity"}, {"sequence": "QGQLVESGGGLVQAGGSLRLSCAASGFIFSIYAMGWYRQAPGKDRELVAGIDNGGGTYYADSGKGRFTISRDNAKNTVYLQMNRLKPEDTAVYYCAADTYSIGELYDYWGQGTQVTVSS", "polyreactivity (PSR sort gate)": "low polyreactivity"}, {"sequence": "QVQLVESGGGLVQAGGSLRLSCAASGFTFYLYAMGWYRQAPGKERELVAAINSGSSTYYADSVKGRFTISRDNAKNTVYLQMNSLKPEDTAVYYCATDTDRTMDYWGQGTQVTVSS", "polyreactivity (PSR sort gate)": "low polyreactivity"}, {"sequence": "QVQLVESGGGLVQAGGSLSISCAASDLPGLCYGWYRQAPGKERELVAAMTSNGGSTYYADSVKGRFTISRDNAKITVYLQMNSLKPEDTAVYYCATEHHTVQVYDYWGQGTQVTVSS", "polyreactivity (PSR sort gate)": "low polyreactivity"}]}]}
